Measured values: article doi:10.1101/2021.06.06.447285 (bioRxiv, 2021)

Biological target: the molecule itself
Test: native gel or EMSA + other: dynamic light scattering + other: negative-stain TEM

B1: Encapsulin from Thermotoga maritima (natural protein)
chain: MEFLKRSFAPLTEKQWQEIDNRAREIFKTQLYGRKFVDVEGPYGWEYAAHPLGEVEVLSDENEVVKWGLRKSLPLIELRATFTLDLWELDNLERGKPNVDLSSLEETVRKVAEFEDEVIFRGCEKSGVKGLLSFEERKIECGSTPKDLLEAIVRALSIFSKDGIEGPYTLVINTDRWINFLKEEAGHYPLEKRVEECLRGGKIITTPRIEDALVVSERGGDFKLILGQDLSIGYEDREKDAVRLFITETFTFQVVNPEALILLKF
binding result: binds
